Results as given in US20190309074A1, “DEGLYCOSYLATED ANTIBODY SPECIFICALLY BINDING TO CLEC14A AND USES THEREOF” (WOORI TECHNOLOGIES CORPORATION, priority 2016, published 2019).

Key:
[1] = tested on: HEK293F cells transfected with wild-type clec14a; assay: clec14a-mediated cell-cell contact (cell aggregate) assay; format: cell-based, human
From the text: In order to identify the mechanism by which deglyco C1 IgG acts on angiogenesis, the number of cell aggregates formed from HEK293F cells transfected with wild-type clec14a and cultured in the presence or absence of parent antibody IgG or deglyco C1 IgG was monitored to conduct functional assay on clec14a-mediated cell-cell contacts.
The parent antibody IgG was used as a positive control group to specifically block clec14a-mediated cell-cell contacts.

[2] = molecular target: T1, hclec14-CTLD and hclec14a-ECD interaction (Homo sapiens, UniProt Q86T13); assay: ELISA: interaction of hclec14a-CTLD-Fc-HRP with hclec14a-ECD; format: binding; details: increasing antibody concentration
T1 construct: hclec14a-CTLD-Fc-HRP was incubated together with purified hclec14a-ECD; hclec14a-ECD (extracellular domain of human clec14a); myc (C)
T1 sequence (Q86T13 33-173 limits assumed): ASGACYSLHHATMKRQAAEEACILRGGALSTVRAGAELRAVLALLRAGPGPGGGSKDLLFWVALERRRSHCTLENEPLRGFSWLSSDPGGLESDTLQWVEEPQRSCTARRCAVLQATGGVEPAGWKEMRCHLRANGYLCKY
Experimental: In addition, hclec14a-CTLD-Fc-HRP was incubated together with purified hclec14a-ECD in the presence of an increasing concentration of parent antibody IgG or deglyco C1 IgG, or in the absence thereof.

[3] = tested on: VEGF-dependent microvessel formation; assay: mouse Matrigel plug assay, VEGF-dependent microvessel formation; format: in vivo
Experimental: In order to observe in vivo efficacies of deglyco C1 IgG on VEGF-dependent angiogenesis, a mouse Matrigel model was established, hemoglobin level was measured as a marker of microvessel formation, and inhibitory activities against microvessel formation of deglyco C1 IgG and bevacizumab were compared by a mouse Matrigel plug assay.

[4] = tested on: HUVECs; assay: HUVEC morphology by immunocytochemistry; format: cell-based, human
Experimental: In addition, the morphology of HUVEC was evaluated in the presence or absence of deglyco C1 IgG using immunocytochemistry. […] In order to evaluate effects of deglyco C1 IgG on the activity of endothelial cells, which is an initial inflammatory response to a harmful stimulus, HUVECs were treated with deglyco C1 IgG, and expression of an endothelial cell activity marker including VCAM-1 (vascular cell adhesion molecule-1) and ICAM-1 (intercellular cell adhesion molecule-1) was measured to monitor HUVEC activity. Human tumor necrosis factor-alpha (hTNFα) was used as a positive control group for endothelial cell activity.
In order to investigate correlations between tumor angiogenesis and clec14a, first, xenograft tumor models including SNU182 human liver cell or CFPAC-1 human pancreatic cancer cell carcinomas were established, and immunohistochemistry was conducted on commercially available antibodies of clec14a and CD31, which is a well-known endothelial marker protein. Immunohistochemistry was conducted as follows. HUVECs (5×10^4) grown on a 0.1% (w/v) gelatin-coated glass cover slip were incubated in the presence or absence of deglyco C1 IgG for 24 hours at 37° C. […]

[5] = tested on: HUVECs; assay: flow cytometry binding to endothelial cells; format: cell-based, human
Experimental: In order to identify whether or not deglyco C1 IgG binds to human endothelial cells, flow cytometry was conducted with HUVECs. […] In addition, in order to measure binding affinity of C1 IgG to hclec14a-ECD (extracellular domain of human clec14a), binding affinity of antibody-antigen binding was measured in real time. It can be seen that deglyco C1 IgG has a KD constant (equilibrium dissociation constant) of 6 nM, which is similar to that of parent antibody IgG (FIG. 3C).

[6] = tested on: U87 human glioma; assay: U87 tumor growth; format: in vivo
[7] = tested on: phosphorylation of VEGFR, Akt and ERK; assay: immunoblot of VEGF-dependent signaling in HUVECs; format: cell-based, human; details: VEGF-treated HUVECs
From the text: In order to investigate effects of deglyco C1 IgG on VEGF-dependent signaling actions in endothelial cells, VEGF-treated HUVECs were subjected to immunoblot analysis in the presence or absence of deglyco C1 IgG to monitor changes in phosphorylation of VEGFR (VEGF receptor), Akt and ERK (extracellular signal-regulated kinase).

[8] = tested on: VEGF-dependent tube formation; assay: VEGF-dependent HUVEC tube formation assay; format: cell-based, human; details: 20 μg ml^−1, 18 hours
Experimental: In order to investigate in vitro effects of deglyco C1 IgG on VEGF-dependent angiogenesis, HUVECs were treated with VEGF in the presence or absence of deglyco C1 IgG, and then HUVEC tube formation assay was conducted. 150 μl of Matrigel was added to a 48-well plate and incubated at 37° C. for 30 minutes. HUVEC (10^5) cultured in EGM-2 were collected, seeded on the Matrigel-coated plate and incubated at 37° C. for 18 hours in the presence or absence of clone 1 IgG, parent antibody IgG, deglycosylated clec14a-CTLD IgG or bevacizumab. HUVECs cultured in VEGF-containing EBM (endothelial cell basal medium) were seeded to the Matrigel-coated plate and incubated at 37° C. for 18 hours in the presence or absence of deglyco C1 IgG (20 μg ml^−1).

B1: deglyco C1 IgG: deglycosylated clone 1 IgG; light chain CDR1 TGSSSNIGRCGVT (SEQ ID NO: 2), N32R/N33C/S34G (antibody, V domains shown)
VH: EVQLVESGGGLVQPGGSLRLSCAVSGFTFSGYDMSWIRQAPGKGLEWVAGIYPDGGNTYYADSVKGRFTISRDDSKNTFYLQMNSLRAEDTAVYYCARGATWWVLGPFDYWGQGTLVTVSS
VL: DIQLTQSPSSLSASVGDRVTITCTGSSSNIGRCGVTWYQQKPGKAPKLLIYADSHRPSGVPSRFSGSGSGTDFTLTISSLQPEDFATYYCGAWDDSLSGYVFGQGTKVEIKR
[1]
  inhibition of clec14a-mediated cell-cell contacts (cell aggregates): inhibitory efficacy
[2]
  suppression of interaction between hclec14-CTLD and hclec14a-ECD: directly suppressed
[3]
  hemoglobin content (microvessel formation): significantly reduced a hemoglobin content
[4]
  morphology of HUVECs: did not change the morphology
[5]
  binding to surfaces of HUVECs: specifically bound to the surfaces of HUVECs
[6]; U87 tumor model
  body weight: no impact on body weight
[6]; measured weekly for one month
  tumor size of U87 cells: significantly reduces the tumor sizes
[7]
  VEGF-dependent phosphorylation of VEGFR, Akt and ERK: almost no effect
[8]
  VEGF-dependent tube formation: removed VEGF-dependent tube formation significantly and almost perfectly
